Data set [1] relates to dTMP. Particulars: read-out: Preferred Substrate (Km), dTMP; cited from earlier work.
The subject of data set [2] is dAMP. The following applies: read-out: Preferred Substrate (Km), dAMP; cited from earlier work.
Data set [3] concerns dUMP. The following applies: read-out: Preferred Substrate (Km), dUMP; cited from earlier work.
Data set [4] has as its system dGMP. Particulars: read-out: Preferred Substrate (Km), dGMP; cited from earlier work.
Data set [5] concerns the target recombinant CD47 protein (Homo sapiens, UniProt Q08722). Nature of the data set: SPR, CD47 conjugated to CM5 chip by EDC-NHS. Format: binding. The method, then: Specifically, the recombinant CD47 protein was conjugated to the surface of the CM5 chip by a target SPR reaction of 250 RU through an EDC-NHS reaction to be used, and for HBS-P, the sensogram obtained through a process of association for 3 minutes and dissociation for 10 minutes at a flow rate of 30 µL/minutes was analyzed with the BiaEvaluation software using a 1:1 binding model and global fitting.
(In general: Surface plasmon resonance follows binding to a sensor surface in real time, without labels.)

The subject of data set [6] is colon cancer cell line HCT-116. Nature of the data set: Trypan blue assay, cell viability and cell growth inhibition. Particulars: HCT-116, 1.25 µg mRNA, 24 hours. Type of data set: cell-based. The procedure:
T001 is more specific to the nucleic acid T due to its structural difference from NT5M. Therefore, nucleic acid imbalance due to the loss of dTTP rather than the overall loss of nucleic acid may have a greater effect on cancer cell metabolism and thereby inhibit the growth of cancer cells. […] Each mRNA was transfected into the colon cancer cell line HCT-116, and 24 hours thereafter, Trypan blue assay was performed and the results of cell viability and cell growth inhibition on HCT-116 are shown in FIG. 13. The specific experimental method is as follows.
HCT-116 cells were transfected with 1.25 µg each of non-mature form NT5M, mature form NT5M, and CT mRNA. After 24 hours, the resultants were each treated with trypsin and the cells were harvested using a centrifuge. After resuspending the harvested cells with 1× DPBS, a certain amount of cells were mixed with trypan blue reagent at a 1:1 ratio. After incubation for 2 minutes at room temperature (RT), the number of cells was counted using a hemocytometer. After obtaining the number of cells stained and unstained with the trypan blue reagent, the number of viable and non-viable cells was obtained, and then divided by the total number of cells to obtain the viability. Each experiment was repeated three or more times to evaluate the significance.

In data set [7] the test system is dTMP. Nature of the data set: 5′-nucleotidase preferred substrate Km, dTMP. Type of data set: biochemical. Particulars: according to Table 4.
Where [8] appears, read: CM5 chip, CD47 250 RU, 30 µL/minutes.

Sequence of recombinant CD47 protein (Q08722 19-323): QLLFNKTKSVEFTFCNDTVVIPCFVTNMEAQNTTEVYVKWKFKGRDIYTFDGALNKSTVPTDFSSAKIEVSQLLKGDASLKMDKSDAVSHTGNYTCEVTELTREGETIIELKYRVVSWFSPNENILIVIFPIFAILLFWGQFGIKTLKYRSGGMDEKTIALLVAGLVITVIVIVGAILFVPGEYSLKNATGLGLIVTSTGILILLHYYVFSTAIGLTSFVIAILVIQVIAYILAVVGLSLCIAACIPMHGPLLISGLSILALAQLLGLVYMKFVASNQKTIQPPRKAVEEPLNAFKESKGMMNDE

B1: hdNT-1: Human cytosolic 5′deoxyribonucleotidase (protein, UniProt Q8TCD5 1-201, looked up)
5'(3')-deoxyribonucleotidase, …: MARSVRVLVDMDGVLADFEAGLLRGFRRRFPEEPHVPLEQRRGFLAREQYRALRPDLADKVASVYEAPGFFLDLEPIPGALDAVREMNDLPDTQVFICTSPLLKYHHCVGEKYRWVEQHLGPQFVERIILTRDKTVVLGDLLIDDKDTVRGQEETPSWEHILFTCCHNRHLVLPPTRRRLLSWSDNWREILDSKRGAAQRE
As a reminder, the Km is the concentration of substrate that gives half-maximal velocity. For B1, the Michaelis-Menten constant (Km) in data set [1] is 1500 µM; in data set [2], 3000 µM; in data set [3], 1500 µM; in data set [4], 3300 µM.

B2: SV4: binder of SEQ ID NO: 2; SV1 with lysines at the 11th and 104th positions substituted with leucine (protein)
chain: MEEELQIIQPDLSVSVAAGESAILHCTITSLFPVGPIQWFRGAGPARVLIYNQRQGPFPRVTTVSETTKRENMDFSISISNITPADAGTYYCIKFRKGSPDTEFLSGAGTELSVRAKPS
modifications: CD47 binder SV4
For B2, the “binding activity when conjugated with DSPE and when inserted into liposomes” value in data set [5] is reported as “maintained within the error range”. In data set [5] (setting [8]), the ka amounted to 164000 M⁻¹ s⁻¹ and the kd came to 0.000275 s⁻¹.

B3: SV4-DSPE: DSPE-conjugated form of SV4 (NHS-activated DSPE-PEG2000 with SV4 protein) (conjugate)
chain: B2 chain
In the case of B3, in data set [5] (setting [8]), the kd was found to be 0.000256 s⁻¹.

B4: T001: Thymidylate 5′-phosphohydrolase derived from bacteriophage PBS2, gene sequence optimized (SEQ ID NO: 3); final drug form mRNA (protein)
chain: MVFSIKEPFSIVTDCDEVLTDISPLWVHKIQQNADYFGKYFDLSKLEGLEFGTFEHYQTVLSRPEFHLNKWLRKENLVLSDEEEKELFERFYSLYDNDEFYEDCMPTKMCEGIYKLSLQKFVDKIYVVTRTSEGTKEGKRKFIETFLNSNKVEIIFVGKNEKKSDYIKNLKNVKMIVEDELSNINDIVENCNDGFEEVDTYIPSTGYNNKDIDGFNENLMKKGFNAVPYVIIERPETEEKAV
modifications: T001
notes: final drug form mRNA
In the case of B4, the figures for the Michaelis constant (Km) in data set [1], in data set [3] and in data set [4] were 10 µM, 800 µM and 700 µM, respectively. The “effect on cells (cell viability and cell growth inhibition)” value in data set [6] was “greater than that of human NT5M”.

B5: NT5M (hdNT-2): human mitochondrial 5′-nucleotidase (SEQ ID NO: 32) (protein)
chain: MGGRALRVLVDMDGVLADFEGGFLRKFRARFPDQPFIALEDRRGFWVSEQYGRLRPGLSEKAISIWESKNFFFELEPLPGAVEAVKEMASLQNTDVFICTSPIKMFKYCPYEKYAWVEKYFGPDFLEQIVLTRDKTVVSADLLIDDRPDITGAEPTPSWEHVLFTACHNQHLQLQPPRRRLHSWADDWKAILDSKRPC
modifications: NT5M
In the case of B5, the Km in data set [1] was 300 µM; in data set [3], 160 µM; in data set [4], 90 µM. For the same molecule, the “affinity for dTMP lower than T001” value in data set [7] is recorded as 30 times.

B6: mdNT-1: Murine cytosolic 5′deoxyribnucleotidase (protein, UniProt Q9JM14 1-200, looked up)
5'(3')-deoxyribonucleotidase, …: MAVKRPVRVLVDMDGVLADFESGLLQGFRRRFPEEPHVPLEQRRGFLANEQYGALRPDLAEKVASVYESPGFFLNLEPIPGALDALREMNDMKDTEVFICTTPLLKYDHCVGEKYRWVEQNLGPEFVERIILTRDKTVVMGDLLIDDKDNIQGLEETPSWEHILFTCCHNQHLALPPTRRRLLSWSDNWRGIIESKRASL
On to B6, for which the Michaelis-Menten constant (Km) in data set [1] is 1400 µM; in data set [2], 1000 µM; in data set [3], 800 µM; in data set [4], 1200 µM.

The record behind these values is patent publication US20230322893A1, “CD47 BINDER AND LIPOSOME COMPLEX FOR CANCER TREATMENT” (priority 2020, published 2023).
